{"source": "patent US20110201560A1", "about": "(DKFZ DEUTSCHES KREBSFORSCHUNGSZENTRUM STIFTUNG DES …, published 2011)", "binders": {"B1": {"name": "E6 pep 11 (peptide)", "peptide": "EFGSGCSCIVCIGLI", "notes": "Expressed in yeast as a GAL4AD fusion (pADpep), in the mammalian two-hybrid assay as a VP16AD fusion (pACT2), and in the p53 reporter assay as an hrGFP fusion; also called a3"}, "B2": {"name": "E6 pep5 (peptide)", "peptide": "PFLLGCFCLCCWIECQIGSYGP", "notes": "Linear peptide from a randomized 20-mer library; Expressed in yeast as a GAL4AD fusion (vector pADpep); also called a2"}, "B3": {"name": "E6 pep 1 (peptide)", "peptide": "KGSLNCSCLVCWLQMFLGEFGP", "notes": "Linear peptide from a randomized 20-mer library; Expressed in yeast as a GAL4AD fusion (vector pADpep); also called a1"}}, "key": {"HPV16 E6 oncoprotein [1]": {"target": "T1, HPV16 E6 oncoprotein (HPV16, UniProt P03126 1-158)", "T1 construct": "Expressed in yeast from pPC97; In the functional assays it is the endogenous E6 of HPV16-positive cells; also called HPV16 E6 protein; HPV-E6", "T1 sequence (P03126 whole entry)": "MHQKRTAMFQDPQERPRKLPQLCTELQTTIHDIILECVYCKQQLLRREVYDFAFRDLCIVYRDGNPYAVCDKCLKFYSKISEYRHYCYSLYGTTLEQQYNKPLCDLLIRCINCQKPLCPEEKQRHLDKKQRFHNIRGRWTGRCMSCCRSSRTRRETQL", "assay": "mutational studies (two-hybrid; assay not further described)"}, "HPV16 E6 oncoprotein [2]": {"target": "T1, HPV16 E6 oncoprotein", "assay": "yeast two-hybrid screening"}, "HPV18 E6 protein": {"target": "T2, HPV18 E6 protein (HPV18, UniProt P06463 1-158)", "T2 construct": "Expressed in yeast from a pPC97 expression vector; also called E6 of HPV18", "T2 sequence (P06463 whole entry)": "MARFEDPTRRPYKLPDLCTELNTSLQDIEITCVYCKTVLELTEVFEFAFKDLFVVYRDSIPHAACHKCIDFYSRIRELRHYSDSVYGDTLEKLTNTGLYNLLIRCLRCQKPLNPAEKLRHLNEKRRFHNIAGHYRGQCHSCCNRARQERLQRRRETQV", "assay": "yeast two-hybrid"}, "HPV6 E6 protein": {"target": "T3, HPV6 E6 protein (HPV6, UniProt P06462 1-150)", "T3 construct": "Expressed in yeast from a pPC97 expression vector; also called E6 of HPV6", "T3 sequence": "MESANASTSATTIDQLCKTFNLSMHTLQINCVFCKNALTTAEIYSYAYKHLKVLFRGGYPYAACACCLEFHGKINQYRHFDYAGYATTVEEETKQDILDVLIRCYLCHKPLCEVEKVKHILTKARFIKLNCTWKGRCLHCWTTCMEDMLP", "assay": "yeast two-hybrid"}, "HPV11 E6 protein": {"target": "T4, HPV11 E6 protein (HPV11, UniProt P04019 1-150)", "T4 construct": "Expressed in yeast from a pPC97 expression vector; also called E6 of HPV11", "T4 sequence": "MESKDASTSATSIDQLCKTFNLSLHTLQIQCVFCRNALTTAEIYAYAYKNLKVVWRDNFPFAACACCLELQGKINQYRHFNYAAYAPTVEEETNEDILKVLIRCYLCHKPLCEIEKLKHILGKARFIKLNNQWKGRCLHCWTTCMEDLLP", "assay": "yeast two-hybrid"}}}
{"binder": "KEKEEYNSNSSSIASIGLI (also called b2)", "note": "[pep11**m]", "values": [{"measurement": "binding result", "setting": "HPV16 E6 oncoprotein [1]", "value": "no binding"}]}
{"binder": "B1", "values": [{"measurement": "binding result", "setting": "HPV16 E6 oncoprotein [2]", "value": "binds"}, {"measurement": "binding result", "setting": "HPV18 E6 protein", "value": "no binding"}, {"measurement": "binding result", "setting": "HPV6 E6 protein", "value": "no binding"}, {"measurement": "binding result", "setting": "HPV11 E6 protein", "value": "no binding"}]}
{"binder": "B2", "values": [{"measurement": "binding result", "setting": "HPV16 E6 oncoprotein [2]", "value": "binds"}, {"measurement": "binding result", "setting": "HPV18 E6 protein", "value": "no binding"}, {"measurement": "binding result", "setting": "HPV6 E6 protein", "value": "no binding"}, {"measurement": "binding result", "setting": "HPV11 E6 protein", "value": "no binding"}]}
{"binder": "B3", "values": [{"measurement": "binding result", "setting": "HPV16 E6 oncoprotein [2]", "value": "binds"}, {"measurement": "binding result", "setting": "HPV18 E6 protein", "value": "no binding"}, {"measurement": "binding result", "setting": "HPV6 E6 protein", "value": "no binding"}, {"measurement": "binding result", "setting": "HPV11 E6 protein", "value": "no binding"}]}
